Source: article PMC11106675, “Synthesis of 1,4-azaphosphinine nucleosides and evaluation as inhibitors of human cytidine deaminase and APOBEC3A” (Beilstein Journal of Organic Chemistry, 2024)

Substrate: Nc1ccn([C@H]2C[C@H](O)[C@@H](CO)O2)c(=O)n1
Experiment: UV kinetic assay of hCDA-catalysed 2'-deoxycytidine deamination
Assay type: biochemical, human
Details: other: pH 7.4, fitted in the experiment with inhibitor β-anomer of Vb, 25.0 °C
Procedure: We monitored the hCDA-catalysed deamination of dC at 286 nm and analysed the kinetic profiles at various inhibitor concentrations using a global regression analysis of the kinetic data using Lambert’s W function. This method provides better estimates for the Michaelis–Menten constant (KM) and maximum velocity (Vmax) than nonlinear regression analysis of the initial rate (V0). […] Then, KM for the substrate and Ki for each inhibitor were calculated, assuming competitive nature of the inhibitors (Table 1).
We assumed that protonation of Va might result in some inhibition of hCDA. […] This means that the pH value of the assay should be close to pH 1.5 to see any meaningful effect of partially protonated compound Va, but hCDA would be denatured at this pH value. By lowering the pH value to 6.0, dZ (IIc) started to lose potency against hCDA (Table 1), which might be a result of protonation of the pyrimidine ring in dZ (IIc). […]
Figure S10. hCDA (27nM) catalysed deamination of 2'-deoxycitidine (⁓1.5 mM) in the absence (plus) and presence of 5 µM 2'-deoxyzebularine (IIc, asterisk) monitored by measuring absorbance at 286 nm over time in 100 mM NaCl, 1 mM TCEP, 50 mM phosphate buffer at 25 °C, at pH 7.4. […]
where mm(t) calculates the current substrate concentration with respect to the time, t. […] A summary of the measured inhibition […]
Uncertainty of Ki was calculated using error-propagation method. […]

B1: human cytidine deaminase (hCDA) (Homo sapiens) (protein)
chain: MAQKRPACTLKPECVQQLLVCSQEAKKSAYCPYSHFPVGAALLTQEGRIFKGCNIENACYPLGICAERTAIQKAVSEGYKDFRAIAIASDMQDDFISPCGACRQVMREFGTNWPVYMTKPDGTYIVMTVQELLPSSFGPEDLQKTQ
notes: purchased Sigma-Aldrich SRP6372; host or cells: E. coli
In the case of B1, the Km is reported as 240 ± 150 µM.
